± gives the standard error.
B1: library; numbered along this chain (parent)
chain: MATDAALRRLLRLHRTEIAVAVDSAFPLLHALADHDVVPEDKFQETLHLKEKEGCPQAFHALLSWLLTQDSTAILDFWRVLFKDYNLERYGRLQPILDSFPKDVDLSQPRKGRKPPAVPKALVPPPRLPTKRKASEEARAAAPAALTPRGTASPGSQLKAKPPKKPESSAEQQRLPLGNGIQTMSASVQRAVAMSSGDVPGARGAVEGILIQQVFESGGSKKCIQVGGEFYTPSKFEDSGSGKNKARSSSGPKPLVRAKGAQGAAPGGGEARLGQQGSVPAPLALPSDPQLHQKNEDECAVCRDGGELICCDGCPRAFHLACLSPPLREIPSGTWRCSSCLQATVQEVQPRAEEPRPQEPPVETPLPPGLRSAGEEVRGPPGEPLAGMDTTLVYKHLPAPPSAAPLPGLDSSALHPLLCVGPEGQQNLAPGARCGVCGDGTDVLRCTHCAAAFHWRCHFPAGTSRPGTGLRCRSCSGDVTPAPVEGVLAPSPARLAPGPAKDDTASHEPALHRDDLESLLSEHTFDGILQWAIQSMARPAAPFPS

Variants of: B1
Experiment: AIRE transcriptional activation functional score (insulin promoter-GFP; nonsense median 0, synonymous median 1) (normalised score); higher = higher AIRE activity (more reporter activation)
Settings: with insulin promoter-GFP reporter in HEK293
Experimental: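 Deep mutational scan of full-length human AIRE (codon-optimized cDNA, DT-POPCode NNN libraries over three regions) integrated at a Bxb1 landing pad in HEK293 cells carrying an insulin core promoter-GFP reporter at a Flp-In site. Cells were sorted for the top 10% GFP about 14 days after transfection. Variant frequency log-ratios (select vs non-select, TileSeq) were rescaled so that the nonsense median is 0 and the synonymous median is 1, then averaged over biological replicates.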

Row | Variant | AIRE transcriptional activation functional score
1 | A73Q | -1.02 ± 0.79
2 | A73R | 1.26 ± 0.79
3 | Q108L | 0.0593 ± 0.35
4 | A403R | 0.877 ± 0.27
5 | A5H | 0.534 ± 0.3
6 | A5S | 1.24 ± 0.36
7 | A5P | 0.767 ± 0.54
8 | R89P | -1.08 ± 0.27
9 | R89Q | 0.475 ± 0.15
10 | P124G | 1.27 ± 0.41
11 | N244R | 0.573 ± 0.29
12 | L406G | 1.08 ± 0.21
13 | K395A | 0.786 ± 0.12
14 | L66I | 0.885 ± 0.42
15 | Q225K | 1.23 ± 0.028
16 | R303H | 1.12 ± 0.21
17 | R494S | 0.361 ± 0.17
18 | R494M | 0.56 ± 0.088
19 | C434N | 0.201 ± 0.12
20 | A191R | 1.2 ± 0.24
21 | A191F | -0.339 ± 0.23
22 | L62E | -0.679 ± 0.41
23 | F26K | -0.369 ± 0.25
24 | V192A | 0.598 ± 0.16

Row | Variant | AIRE transcriptional activation functional score
25 | V192N | 0.244 ± 0.2
26 | V192D | 0.613 ± 0.17
27 | S239N | 1.4 ± 0.38
28 | L63Q | -0.326 ± 0.27
29 | H458Y | 0.864 ± 0.076
30 | T3S | 0.972 ± 0.75
31 | R190E | 0.705 ± 0.16
32 | L366F | 1.02 ± 0.096
33 | G208I | -0.141 ± 0.15
34 | C310F | 0.908 ± 0.13
35 | P162T | 0.633 ± 0.6
36 | S156I | 1.37 ± 0.37
37 | T16C | 0.227 ± 0.26
38 | A61S | 1.48 ± 0.25
39 | A61E | 0.619 ± 0.68
40 | A281N | 0.445 ± 0.21
41 | A281L | 1.31 ± 0.25
42 | E216H | 0.489 ± 0.083
43 | L106D | 0.107 ± 1.1
44 | A25Y | -0.882 ± 0.51
45 | V37S | -0.316 ± 0.64
46 | A202D | 0.687 ± 0.19
47 | A265N | 1.54 ± 0.1
48 | S241K | 0.301 ± 0.13

Row | Variant | AIRE transcriptional activation functional score
49 | K42E | -0.598 ± 0.44
50 | S168V | 0.761 ± 0.57
51 | T151Q | 1.28 ± 0.67
52 | A2T | 0.369 ± 0.19
53 | K222D | 0.771 ± 0.13
54 | K222T | 0.149 ± 0.57
55 | L488R | 0.722 ± 0.19
56 | L370H | 0.944 ± 0.2
57 | Q425N | 0.869 ± 0.12
58 | Q425W | 1.28 ± 0.024
59 | A121K | 1.21 ± 0.12
60 | A121S | 1.28 ± 0.72
61 | G438N | 0.938 ± 0.11
62 | S402I | 0.78 ± 0.15
63 | R513K | 0.902 ± 0.11
64 | R513Y | 1.28 ± 0.17
65 | R513D | 0.928 ± 0.061
66 | V206K | 0.691 ± 0.28
67 | P544N | -0.709 ± 0.074
68 | G374P | 1.1 ± 0.11
69 | D70L | -0.362 ± 0.63
70 | D70R | 0.35 ± 0.4
71 | L327E | 0.71 ± 0.14
72 | N427H | 0.904 ± 0.29

Row | Variant | AIRE transcriptional activation functional score
73 | N427A | 1.33 ± 0.17
74 | A138S | 0.847 ± 0.28
75 | H319S | 1.31 ± 0.088
76 | A510L | 1.04 ± 0.12
77 | A493G | 1.15 ± 0.18
78 | A246N | 0.102 ± 0.052
79 | P430Y | 1.03 ± 0.16
80 | P430G | 1.21 ± 0.26
81 | S249I | 1.25 ± 0.41
82 | P176G | 0.765 ± 0.56
83 | P176M | 2.1 ± 0.086
84 | W455I | 0.29 ± 0.38
85 | W455C | 1.09 ± 0.14
86 | L291V | 1.03 ± 0.21
87 | L291M | 1.29 ± 0.025
88 | L529G | -0.203 ± 0.081
89 | L67C | -0.405 ± 0.18
90 | V104P | 0.45 ± 0.086
91 | R351F | 1.16 ± 0.44
92 | R351L | 0.985 ± 0.14
93 | R351V | 0.812 ± 0.3
94 | D198L | 0.549 ± 0.26
95 | E17I | -0.454 ± 0.54
96 | E17S | -0.0199 ± 0.23

Row | Variant | AIRE transcriptional activation functional score
97 | D34L | 0.437 ± 0.75
98 | D34W | -0.393 ± 0.11
99 | T463A | 0.614 ± 0.19
100 | E347D | 1.21 ± 0.29
101 | A537K | 0.346 ± 0.28
102 | A537Q | 0.813 ± 0.16
103 | A537I | 0.231 ± 0.063
104 | F77M | 0.136 ± 0.39
105 | A532Q | 0.186 ± 0.072
106 | T68Y | 0.495 ± 0.42
107 | Q69G | 0.383 ± 0.3
108 | F318L | 1.05 ± 0.18
109 | G178D | 0.549 ± 0.096
110 | P289H | 1.22 ± 0.052
111 | P289L | 0.891 ± 0.15
112 | R257K | 0.866 ± 0.11
113 | F59Y | -0.0924 ± 0.19
114 | V487E | -0.349 ± 0.43
115 | R9N | 1.38 ± 0.35
116 | K159Y | 1.33 ± 0.18
117 | K159W | 1.36 ± 0.054
118 | K159R | 1.48 ± 0.41
119 | K159L | 1.18 ± 0.32
120 | G382W | 1.38 ± 0.038

Row | Variant | AIRE transcriptional activation functional score
121 | G382K | 0.449 ± 0.17
122 | V199Y | 1.4 ± 0.091
123 | V199W | 0.623 ± 0.032
124 | K50E | 0.64 ± 0.64
125 | A19K | 0.838 ± 1.1
126 | Q262L | 1.31 ± 0.12
127 | Q534V | 0.135 ± 0.36
128 | Q534I | -0.04 ± 0.16
129 | S169F | 1.46 ± 0.39
130 | S278T | 1.23 ± 0.46
131 | C475E | -0.103 ± 0.23
132 | C475T | 0.102 ± 0.073
133 | S248Q | 0.368 ± 0.26
134 | S248A | 0.947 ± 0.56
135 | P539C | 0.233 ± 0.21
136 | P539Y | -0.367 ± 0.19
137 | H14I | -0.18 ± 0.47
138 | P143C | 0.956 ± 0.2
139 | A145R | 0.804 ± 0.39
140 | I528P | 0.0858 ± 0.066
141 | P286T | 1.07 ± 0.25
142 | P286S | 0.834 ± 0.37
143 | P286I | 0.986 ± 0.4
144 | R15W | 0.0452 ± 0.059

Row | Variant | AIRE transcriptional activation functional score
145 | R15V | 0.0544 ± 0.6
146 | D84I | -0.4 ± 0.27
147 | V38N | -0.701 ± 0.037
148 | A21P | 0.125 ± 0.7
149 | L516I | 0.97 ± 0.13
150 | A429Q | 1.32 ± 0.12
151 | A429L | 1.06 ± 0.12
152 | G251T | 1.09 ± 0.15
153 | R316Y | 1.36 ± 0.26
154 | L7G | -0.106 ± 0.71
155 | L7H | 0.927 ± 0.78
156 | P129V | 0.215 ± 0.2
157 | R473S | 0.755 ± 0.1
158 | L414H | 0.857 ± 0.045
159 | G369L | 1.46 ± 0.17
160 | P466I | 1.21 ± 0.15
161 | G155S | 0.589 ± 0.56
162 | P154G | 0.75 ± 0.43
163 | P154H | 0.26 ± 0.51
164 | D297C | 0.929 ± 0.061
165 | D297W | 0.671 ± 0.097
166 | D297V | 0.909 ± 0.28
167 | E137I | 0.97 ± 0.44

From the supplement of paper PMC12667976
